T1: TEN domain (in vitro translated) (Tetrahymena thermophila, UniProt O77448 2-191)
T1 sequence: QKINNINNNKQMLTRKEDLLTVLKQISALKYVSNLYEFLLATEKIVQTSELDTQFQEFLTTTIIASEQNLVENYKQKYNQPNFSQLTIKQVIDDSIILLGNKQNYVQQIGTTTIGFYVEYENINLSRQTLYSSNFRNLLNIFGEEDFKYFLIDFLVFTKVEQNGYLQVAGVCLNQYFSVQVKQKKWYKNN

T2: TERT deltaTEN (Tetrahymena thermophila, UniProt O77448 192-1117)
T2 sequence: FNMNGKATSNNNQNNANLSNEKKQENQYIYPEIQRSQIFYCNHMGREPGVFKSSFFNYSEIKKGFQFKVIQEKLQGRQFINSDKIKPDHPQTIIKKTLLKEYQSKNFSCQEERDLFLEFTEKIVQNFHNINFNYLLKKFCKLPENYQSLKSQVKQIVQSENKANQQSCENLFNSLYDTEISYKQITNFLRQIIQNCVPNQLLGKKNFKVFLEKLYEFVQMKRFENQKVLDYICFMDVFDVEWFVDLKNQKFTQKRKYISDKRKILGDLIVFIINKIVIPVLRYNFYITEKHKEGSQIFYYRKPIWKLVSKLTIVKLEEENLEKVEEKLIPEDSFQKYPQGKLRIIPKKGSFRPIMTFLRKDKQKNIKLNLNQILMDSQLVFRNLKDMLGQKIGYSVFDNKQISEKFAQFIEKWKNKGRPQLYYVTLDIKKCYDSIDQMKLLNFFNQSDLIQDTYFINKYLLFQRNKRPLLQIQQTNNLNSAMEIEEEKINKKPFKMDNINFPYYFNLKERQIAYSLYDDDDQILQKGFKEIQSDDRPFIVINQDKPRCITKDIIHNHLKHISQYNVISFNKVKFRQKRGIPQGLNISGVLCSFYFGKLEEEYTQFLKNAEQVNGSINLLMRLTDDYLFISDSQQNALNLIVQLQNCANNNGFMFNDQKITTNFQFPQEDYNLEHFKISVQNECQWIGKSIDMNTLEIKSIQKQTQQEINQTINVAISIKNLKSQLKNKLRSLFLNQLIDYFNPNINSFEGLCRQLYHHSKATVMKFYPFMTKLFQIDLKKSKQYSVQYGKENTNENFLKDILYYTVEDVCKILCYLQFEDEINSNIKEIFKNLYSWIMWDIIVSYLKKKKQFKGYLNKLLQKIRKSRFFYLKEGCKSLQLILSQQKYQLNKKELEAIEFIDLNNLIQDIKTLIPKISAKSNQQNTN

T3: TERT deltaC233 (Tetrahymena thermophila, UniProt O77448 1-884)
T3 sequence: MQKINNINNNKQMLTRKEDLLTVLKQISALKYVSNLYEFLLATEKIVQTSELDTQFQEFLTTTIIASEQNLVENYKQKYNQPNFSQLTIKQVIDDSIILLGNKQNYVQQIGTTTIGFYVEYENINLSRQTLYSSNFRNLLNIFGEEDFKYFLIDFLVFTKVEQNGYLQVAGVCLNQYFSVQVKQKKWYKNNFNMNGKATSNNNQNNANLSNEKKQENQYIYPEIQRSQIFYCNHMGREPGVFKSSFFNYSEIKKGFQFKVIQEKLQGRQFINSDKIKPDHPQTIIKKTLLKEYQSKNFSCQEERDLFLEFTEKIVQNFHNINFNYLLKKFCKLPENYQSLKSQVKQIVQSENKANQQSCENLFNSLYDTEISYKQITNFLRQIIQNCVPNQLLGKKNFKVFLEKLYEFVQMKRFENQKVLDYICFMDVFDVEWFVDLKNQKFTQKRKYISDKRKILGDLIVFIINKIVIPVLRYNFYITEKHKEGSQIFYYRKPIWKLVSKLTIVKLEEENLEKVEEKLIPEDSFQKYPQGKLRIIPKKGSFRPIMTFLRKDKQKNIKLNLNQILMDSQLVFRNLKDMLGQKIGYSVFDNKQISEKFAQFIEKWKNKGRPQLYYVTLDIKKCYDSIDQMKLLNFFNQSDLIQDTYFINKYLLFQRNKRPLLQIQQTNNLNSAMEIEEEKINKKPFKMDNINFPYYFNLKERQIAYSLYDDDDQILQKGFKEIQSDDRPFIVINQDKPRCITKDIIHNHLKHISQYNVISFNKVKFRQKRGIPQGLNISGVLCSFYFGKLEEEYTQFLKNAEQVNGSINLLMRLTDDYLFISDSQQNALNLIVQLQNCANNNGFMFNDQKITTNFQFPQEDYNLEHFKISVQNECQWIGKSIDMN

T4: N519 (Tetrahymena thermophila, UniProt O77448 1-519)
T4 sequence: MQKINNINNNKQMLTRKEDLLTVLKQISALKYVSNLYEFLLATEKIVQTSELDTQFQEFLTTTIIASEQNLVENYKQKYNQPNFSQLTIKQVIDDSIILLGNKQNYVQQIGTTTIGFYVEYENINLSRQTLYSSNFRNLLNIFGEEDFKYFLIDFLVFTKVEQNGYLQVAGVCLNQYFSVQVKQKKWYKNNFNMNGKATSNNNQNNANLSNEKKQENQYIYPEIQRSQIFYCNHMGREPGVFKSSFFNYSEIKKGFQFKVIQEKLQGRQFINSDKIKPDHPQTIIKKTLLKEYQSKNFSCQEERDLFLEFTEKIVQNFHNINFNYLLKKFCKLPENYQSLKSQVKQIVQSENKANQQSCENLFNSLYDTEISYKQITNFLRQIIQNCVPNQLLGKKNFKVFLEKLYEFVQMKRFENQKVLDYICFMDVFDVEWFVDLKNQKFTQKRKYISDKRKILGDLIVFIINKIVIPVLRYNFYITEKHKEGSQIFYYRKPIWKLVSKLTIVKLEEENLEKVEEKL

T5: C598 (Tetrahymena thermophila, UniProt O77448 520-1117)
T5 sequence: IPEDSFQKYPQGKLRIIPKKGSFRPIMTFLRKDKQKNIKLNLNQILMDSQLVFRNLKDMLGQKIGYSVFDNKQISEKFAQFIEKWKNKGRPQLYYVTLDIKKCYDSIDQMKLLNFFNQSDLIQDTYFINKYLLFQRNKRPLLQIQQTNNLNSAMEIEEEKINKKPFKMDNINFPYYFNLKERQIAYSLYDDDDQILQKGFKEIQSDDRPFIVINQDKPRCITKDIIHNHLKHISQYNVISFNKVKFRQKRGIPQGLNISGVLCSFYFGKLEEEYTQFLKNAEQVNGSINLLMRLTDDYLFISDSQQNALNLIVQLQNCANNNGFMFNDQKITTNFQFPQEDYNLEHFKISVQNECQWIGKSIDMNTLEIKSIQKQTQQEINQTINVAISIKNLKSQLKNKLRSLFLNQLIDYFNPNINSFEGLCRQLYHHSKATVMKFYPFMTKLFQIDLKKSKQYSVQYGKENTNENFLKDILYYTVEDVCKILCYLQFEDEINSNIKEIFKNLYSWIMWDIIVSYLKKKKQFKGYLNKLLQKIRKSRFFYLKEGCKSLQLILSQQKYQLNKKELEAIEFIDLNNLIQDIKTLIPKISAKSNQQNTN

T6: TEN domain (E. coli) (Tetrahymena thermophila, UniProt O77448 2-191)
T6 sequence: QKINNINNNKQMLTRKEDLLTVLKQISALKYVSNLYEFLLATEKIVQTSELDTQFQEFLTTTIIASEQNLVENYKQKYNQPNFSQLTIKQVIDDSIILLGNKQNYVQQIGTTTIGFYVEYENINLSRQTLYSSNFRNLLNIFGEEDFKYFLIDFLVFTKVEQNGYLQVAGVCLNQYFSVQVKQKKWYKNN


Tests used:
[1] = target: T1, TEN domain (in vitro translated); test: NeutrAvidin pull-down
TERT deltaTEN = target: T2, TERT deltaTEN; test: NeutrAvidin pull-down
TERT deltaC233 = target: T3, TERT deltaC233; test: NeutrAvidin pull-down
N519 [2] = target: T4, N519; test: NeutrAvidin pull-down
N519 [3] = target: T4, N519; test: UV crosslinking
C598 = target: T5, C598; test: UV crosslinking
TEN domain (E. coli) = target: T6, TEN domain (E. coli); test: UV crosslinking

Binder | binding result [1] | binding signal (TERT deltaTEN) | binding signal (TERT deltaC233) | binding signal (N519 [2]) | binding result (N519 [3]) | binding result (C598) | binding result (TEN domain (E. coli))
GGGGTTGGGGTTGGGGTT (ssDNA, 5' biotin) [Bio-18GTT] | no binding | ~4 fold higher Kd than full-length TERT | ~4 fold higher Kd than full-length TERT | ~6 fold lower affinity than full-length TERT |  |  | 
UTGGGGTTGGGGTTGGGGTT (ssDNA, 5-iodo-dU at position 1) [I(1)20GTT] |  |  |  |  | binds | binds | 
TTGGGGUTGGGGTTGGGGTT (ssDNA, 5-iodo-dU at position 7) [I(7)20GTT] |  |  |  |  | binds | binds | binds
TTGGGGTTGGGGUTGGGGTT (ssDNA, 5-iodo-dU at position 13) [I(13)20GTT] |  |  |  |  | binds | binds | binds
TTGGGGTTGGGGTTGGGGUT (ssDNA, 5-iodo-dU at position 19) [I(19)20GTT] |  |  |  |  | binds | binds | binds

From publication PMC2275084
